Test results: the supplement of paper PMC10724198
± gives the standard deviation of the averaged measurements.

Test system: Saccharomyces cerevisiae
Assay: protein stability index of tFT-peptide fusion (C-terminal peptide) (PSI (0-1 scale)); higher = more stable (slower turnover)
Conditions: genetic background: wild type; temperature: 30 C
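Note: PSI is a weighted mean of sequencing reads over stability bins, variants kept only with over 10 reads, mCherry proximal and sfGFP distal, peptide attached via GGGS linker.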

Sequence	protein stability index
LSRFLPESVYMS	0.679 ± 0.011
PPPRPPPFPLSC	0.7134 ± 0.0065
SRVTGPGRADGT	0.691 ± 0.011
ILCPSPAPTSFP	0.6682 ± 0.0061
VRGRGRQDVDGG	0.699 ± 0.11
GSMCYRTVTNLR	0.593 ± 0.017
SPSPPHPLTTTL	0.711 ± 0.075
AAPPPAPPPPPR	0.694 ± 0.0082
PLALRPPFSHGL	0.698 ± 0.024
GCRLVEGAVRLE	0.686 ± 0.048
TLFQGHQLFKSR	0.737 ± 0.0068
PTIRKDPLGFLR	0.707 ± 0.0084
GGGRGVGCMGCR	0.688 ± 0.015
TVSEQWKLLGER	0.736 ± 0.051
PTIMYIRKTEER	0.692 ± 0.043
RKKNVYGKKIKI	0.656 ± 0.083
RSLSPPPASPIP	0.6755 ± 0.0051
FAHSPPPHLSVR	0.624 ± 0.014
GILFFLQLCACS	0.7014 ± 0.0064
ACVGGGGMKVLG	0.713 ± 0.065
LMVCQKPYCMRI	0.678 ± 0.0014
PPLPLPLPPPTP	0.767 ± 0.088
RNIRGDYKGRRL	0.6455 ± 0.0019
NPPELPVTENNP	0.821 ± 0.17
SSHHYSCPLVDT	0.667 ± 0.058
GSFLGVRPGNVF	0.828 ± 0.055

Sequence	protein stability index
NNQKTKLNEKNC	0.647 ± 0.048
PPRPAPPPPPAL	0.723 ± 0.11
PFSASSILESVI	0.719 ± 0.098
VGSRGWGRWGVA	0.693 ± 0.047
GDMKCVTRDSFI	0.638 ± 0.054
LRPLVRLLHSYP	0.718 ± 0.031
DIRRSSMFKPKS	0.702 ± 0.074
AYSPLFPPLLSL	0.649 ± 0.045
GPGSGWWVSCSL	0.751 ± 0.04
PANASAEGDTSP	0.682 ± 0.0082
GLCRLLEILKLR	0.63 ± 0.054
RFPLPGLISFSS	0.742 ± 0.056
VAGGTCGGRACC	0.694 ± 0.099
LPAPLLSPPRHF	0.746 ± 0.072
PSLPVPLVPPLS	0.633 ± 0.014
VWCAFNLLFARQ	0.574 ± 0.032
PSPAALLPPPPP	0.643 ± 0.014
RGGVGWGVFRVS	0.679 ± 0.064
GGNMPNNCWSRI	0.698 ± 0.022
VDLVSRVVFQDR	0.7231 ± 0.0015
PSLPPPRRPLSP	0.671 ± 0.017
LPAEGSTKSRSY	0.741 ± 0.055
VVWEGSEFVSLA	0.671 ± 0.039
KTMCNNLTKLQR	0.622 ± 0.029
LPPRPPPPPPPA	0.62606 ± 2.4e-05
FFPSFVLSFPCL	0.641 ± 0.069

Sequence	protein stability index
CLCITGIPVQGF	0.653 ± 0.064
IQPDVILLTRFV	0.6592 ± 0.0033
SSSPPPPPPSPS	0.75 ± 0.12
ENQGQKQKKKKR	0.753 ± 0.046
GGSGGGRRGVGR	0.656 ± 0.0095
GPSKTGRPLSGT	0.713 ± 0.026
LPPSQLPPPHLT	0.662 ± 0.019
PPCRRGRTHGVY	0.685 ± 0.024
PCPRPTPLPPFP	0.701 ± 0.055
GSSGPCRSHVLG	0.694 ± 0.02
LLGRGVSLFRCG	0.643 ± 0.3
HGNFLTALVGRI	0.669 ± 0.046
RPPPRSPPLPRL	0.806 ± 0.03
GGAWGHCSHEWS	0.6882 ± 0.0052
PPPPRPSPSIYP	0.732 ± 0.018
RPSLEKQETEKT	0.696 ± 0.056
PPPPRRPPPAPF	0.6935 ± 0.0022
KNGQGQRKIPGK	0.721 ± 0.023
RPASVHDLSLQC	0.681 ± 0.033
APPPALHPPPPH	0.688 ± 0.054
VGTQIGLWVAQV	0.591 ± 0.041
LSVFWRGSLWTL	0.635 ± 0.023
PPFTPLPPSVPP	0.686 ± 0.03
GGTGRGGEMGGR	0.7428 ± 0.0069
FLHSERTLCFIS	0.537 ± 0.052
VSIMRLGSCRQD	0.702 ± 0.033

Sequence	protein stability index
GFTVVGCSYVTT	0.5572 ± 0.0023
GGIVGVSWLVRS	0.657 ± 0.03
SPTSTILKSYTR	0.659 ± 0.086
SSQVELPVSVVW	0.649 ± 0.058
SPSCFFIFALPC	0.605 ± 0.037
PPPLPLSTPPPL	0.671 ± 0.014
RVSVGGSVRLFG	0.711 ± 0.04
DVGIVPGVFWWV	0.738 ± 0.054
AVGRSVVCINRA	0.686 ± 0.041
MRRTFQHQGRAN	0.676 ± 0.031
EGRGQRGARAAQ	0.7181 ± 0.0034
PFPPLPPPPSPC	0.71 ± 0.014
WGYRLRGGGGQG	0.701 ± 0.064
LPPSNYPCPSGK	0.706 ± 0.02
RLLLRNAASSSS	0.691 ± 0.042
AFICGWSVGFGW	0.697 ± 0.0072
HPPTLCPLSRRH	0.659 ± 0.047
SAPCSFCPPPPG	0.667 ± 0.026
SPLSLPTRSCLL	0.7075 ± 0.0066
PPPTSSPSPSIL	0.741 ± 0.07
RVLLLTGAFELV	0.585 ± 0.028
SPVQHPKHIQPG	0.656 ± 0.008
QKRKMIEKEKEK	0.768 ± 0.098
NVIVRVPFVLEE	0.692 ± 0.059
TPSSLLLISPPS	0.703 ± 0.083
WDGWPTGSGGTG	0.72654 ± 0.00043

Sequence	protein stability index
PPQPRLTPSPPL	0.697 ± 0.028
PVSALHLSLSCP	0.698 ± 0.028
VRFVVRSVSSFV	0.5973 ± 0.0014
SRASPPCSLLSS	0.696 ± 0.051
RGCGAIYRGSCG	0.707 ± 0.021
LLYPRYFSTGIT	0.558 ± 0.065
PLSRVEGRVPAI	0.6663 ± 0.0039
KPQAGPSRHPPS	0.759 ± 0.064
LRIYIKTGAKGV	0.71448 ± 0.00053
LHGDLLFSVYVL	0.597 ± 0.083
PFRSFVFSLDPF	0.725 ± 0.049
PYIFLPLGRAGN	0.723 ± 0.076
SPSIRFILWGPI	0.678 ± 0.041
VSSVTFSLSFAL	0.813 ± 0.082
GSVLPPPSSPPL	0.704 ± 0.013
SFFPPFHLLFSY	0.532 ± 0.025
GCRGWRSVGRGR	0.644 ± 0.025
APRIILTCRSLT	0.5 ± 0.1
TICVILNGVGYS	0.625 ± 0.11
PPPFPPAPRHPP	0.614 ± 0.013
FFPLPPSSPPSP	0.7184 ± 0.0069
VSGCPVVFRSYC	0.693 ± 0.024
PSCPAFPSPPPS	0.696 ± 0.014
HQKQCRSNRHRG	0.657 ± 0.05
NKKRKYRKNKRG	0.6096 ± 0.0051
KEGSGQRRARRA	0.686 ± 0.066

Sequence	protein stability index
FRKTDYMVHNGI	0.664 ± 0.015
ILPFYAEGQLKF	0.649 ± 0.05
LSTTQSKTLNPR	0.682 ± 0.052
CARSFGLFGTAT	0.694 ± 0.075
GNLPQIIYSKVQ	0.609 ± 0.037
SMWKQIRVYGLW	0.636 ± 0.028
PTPVAHSLSLRI	0.637 ± 0.033
NKKTYHRPTKNY	0.693 ± 0.015
DVVFRLAFTDFC	0.693 ± 0.021
LGEDRVKYQKLW	0.7234 ± 0.007
PFPPRRLLSAPP	0.671 ± 0.039
FLFSDLVCSSVF	0.704 ± 0.027
LSARSSFIFSYY	0.645 ± 0.017
CREWNKAGWGNV	0.702 ± 0.014
SPQPSLPFLPPL	0.668 ± 0.026
WSYGHVPYDYPF	0.73 ± 0.022
LPGTVELHSSRL	0.755 ± 0.022
SSPSALSLLLSV	0.6876 ± 0.0049
LTSSYSLCFLAP	0.696 ± 0.011
PSLPPDLPPPPA	0.744 ± 0.011
LRYARAPFPAPP	0.699 ± 0.024
PSPPAPFPVCLL	0.617 ± 0.011
VALLRDSCLGVV	0.671 ± 0.018
SFNDVPPPEGIK	0.67 ± 0.038
VVAAGGASDVGG	0.712 ± 0.056
GLGVPCDFRVVA	0.694 ± 0.013

Sequence	protein stability index
DFSSLIISFPFI	0.627 ± 0.059
ARGARTCDLIRW	0.717 ± 0.035
FKRPQFFSAFFP	0.612 ± 0.011
VPFFLSNSSHIK	0.679 ± 0.051
PLPPPTSPPSPP	0.749 ± 0.11
SWSLIFFGYFPF	0.591 ± 0.029
PRGTFARSRSTG	0.7156 ± 0.0027
RWGGGGSVSFWW	0.712 ± 0.053
YCVCACCASLLA	0.538 ± 0.025
SGRVMRAFSCGV	0.6228 ± 0.0036
VPPHLLAPDPRL	0.7158 ± 0.0066
LSLDMVAPTGLA	0.686 ± 0.014
LVHVPVCFLSVL	0.557 ± 0.0021
NGVRGRGGQWVQ	0.725 ± 0.03
ENGRRTDKKVST	0.687 ± 0.023
WRLVREGRMRGG	0.742 ± 0.031
APDLAVWNLGPH	0.68899 ± 0.00041
CDWRSMEWRGCW	0.693 ± 0.0072
YQRENYERKGYR	0.681 ± 0.067
PLPSHPPRPLPP	0.67 ± 0.05
SAPSPPPPLAPP	0.679 ± 0.041
RGTYACGMGGVG	0.654 ± 0.074
DSRFMLYIHSSR	0.7132 ± 0.0038
RWRFSARSRLSR	0.642 ± 0.013
KERLQLSVNLNI	0.628 ± 0.067
CVDAFLVRLVFM	0.568 ± 0.013

Sequence	protein stability index
SLIPLRLTLTRH	0.739 ± 0.023
AASPRDPQKDHA	0.711 ± 0.057
KGQKVAYSRHRA	0.718 ± 0.063
RGGGGGSAVEGG	0.635 ± 0.095
RSWVGVEWVGGM	0.595 ± 0.094
ISVAHIPPVYHS	0.643 ± 0.038
GWNRVGDWGVCG	0.736 ± 0.01
RDERDWDGSSWA	0.708 ± 0.03
LRWFLTGWPRGE	0.699 ± 0.16
SLGGCVMCGTTL	0.708 ± 0.029
PSCALAFRSEPH	0.741 ± 0.018
FLFLSFLSSSPS	0.745 ± 0.0088
EGGPRTGGRGSR	0.67 ± 0.035
STPSPSPTGLSR	0.597 ± 0.065
TSGHSCGRGLLD	0.64 ± 0.012
CFVERRCFLLYR	0.562 ± 0.029
CMVRGCFNHCGW	0.669 ± 0.024
SPPPPPALPEYQ	0.6877 ± 0.0012
PLLDPFFPLVFT	0.58 ± 0.019
AWNRFVNPRVWS	0.677 ± 0.03
